Laboratory results as given in publication PMC2151542.

Biological target: MthK channel (Methanobacterium thermoautotrophicum) (UniProt O27564)
Experiment: single-channel recording in planar lipid bilayers

## charybdotoxin (from UniProt P13487 23-59) (peptide)
  Kd: 1 nM
